Data: the Human Domainome abundance scans (Beltran et al. 2025)

B1: Zinc finger homeobox protein 3, residues 2147 to 2202; numbered along this chain, Q15911 (parent)
chain: RPRTRITDDQLRVLRQYFDINNSPSEEQIKEMADKSGLPQKVIKHWFRNTLFKERQ

Variants of: B1
Assay: abundance fitness (aPCA) (normalised: wild type 0, dead -1); higher = more abundant; growth selection in yeast, the domain comes from the species named
Conditions: Homo sapiens

Abundance fitness: each site, then its substitutions
D34: E 0.207; C -0.039; N 0.082; R -0.086; P -0.582; K 0.02; A 0.071; G -0.011; S -0.002; Y -0.253; F 0.013; H 0.061; V -0.063; W -0.318; M -0.097; L -0.123; I -0.088; T 0.053; Q -0.112
S23: I -0.501; G -0.268; F -0.025; A -0.033; K -0.07; N -0.14; D 0.076; V -0.216; Y -0.255; P -0.21; C 0.081; R -0.085; E -0.123; L -0.149; H 0.055; M -0.035; W -0.243; Q 0.004; T 0.102
I29: A -0.476; R -0.507; P -0.838; C -0.279; M -0.008; Y -0.189; L 0.09; K -0.634; W -0.387; S -0.491; E -0.334; G -0.827; Q -0.225; D -1.17; H -0.282; N -0.44; T -0.109
K30: Q -0.323; W -0.537; H -0.161; D -0.155; L -0.239; T -0.061; F -0.264; C -0.217; P -0.679; R -0.193; A -0.006; I -0.133; G -0.188; S -0.205; M -0.107; N -0.637
E31: C -0.213; T -0.011; D 0.047; S -0.196; M -0.133; R -0.282; Q -0.507; G -0.316; P -1.03; L -0.259; H -0.168; I -0.252; N -0.399; V -0.079; K -0.017; A -0.151; W -0.404; Y -0.448; F -0.375
N21: W -0.38; M -0.103; L -0.256; G -0.153; A -0.008; H -0.01; F -0.421; V -0.171; I -0.276; Q -0.105; T 0.152; C -0.14; E -0.005; S -0.013; D -0.102; P -0.335; Y 0.014; K -0.018
Q28: G -0.209; I -0.033; D -0.278; R -0.221; K -0.327; E -0.102; W -0.642; C -0.423; H -0.058; L -0.205; F -0.562; N -0.171; V -0.064; A -0.042; Y -0.385; M -0.168
K35: A -0.279; C -0.382; E -0.168; D -0.297
N22: A 0.022; C 0.001; H 0.219; S 0.001; V -0.022; Q 0.038; W -0.19; L -0.092; R 0.116; I -0.052; F -0.222; T 0.079; E -0.057; Y -0.076; M 0.038; G -0.152; K -0.085; D -0.189; P -0.035
F18: H -0.259; D -0.419; N -0.451; G -0.263; K -0.039; V -0.333; Y 0.016; Q -0.203; T -0.109; R -0.069; L -0.137; M -0.15; S -0.1; A -0.187; W 0.022; C -0.161; E -0.555
P24: S -1; F -0.746; Y -0.519; H -0.566; M -0.5; E -0.673; R -0.716; D -0.8; L -0.315; W -0.485; N -0.873; C -0.534; G -0.685; T -0.585; I -0.652; Q -0.747; V -0.413; A -0.606
Q16: L -0.091; N -0.174; E -0.045; K 0.092; P -0.242; H -0.101; R 0.001; W -0.09; V -0.162; S 0.122; T -0.012; M -0.01; G 0.008; I -0.469; F -0.196
Y17: W -0.181; T -0.369; L -0.133; M 0.083; A -0.165; S -0.207; R -0.369; Q -0.196; D -0.184; P -0.838; E -0.168; I -0.175; C -0.204; V -0.153; H -0.127; N -0.095; F 0.026
S25: H -0.537; V -0.356; M -0.523; Q -0.223; D -0.225; C -0.244; E -0.111; A -0.14; Y -0.382; T 0.012; K -0.045; P -0.191; I -0.361; G 0.024; F -0.623; W -0.901; N -0.196; R -0.202
E26: V -0.082; G -0.192; Q 0.171; M -0.133; T -0.057; D 0.063; F -0.071; H -0.001; Y 0.004; C 0.024; K -0.016; R -0.093; P 0.031; A -0.043; L -0.089; N -0.082; I 0.086; W -0.265
I20: P 0.036; A 0.009; Y -0.237; V -0.074; W -0.184; C 0.1; K -0.081; M 0.02; D -0.087; F -0.037; G -0.045; Q -0.019; L -0.036; E -0.228; N 0.008; H -0.001; T -0.052
M32: S -0.882; L -0.181; I -0.191; P -1.15; N -1.08; C -0.407; D -0.466; T -0.584; Y -0.317; E -0.987; F -0.383; V -0.164; A -0.338; R -1.18; Q -0.774; K -1.03
A33: D -0.879; L -0.511; S -0.054; E 0.038; K -0.357; Q -0.185; C -0.158; M -0.083; G -0.212; W -0.556; R -0.163; Y -0.299; H 0.254; P -0.908; N -0.21; V -0.186
E27: A 0.027; C -0.019; S 0.024; H -0.147; K 0.124; G -0.071; W -0.341; R -0.046; M -0.039; Y -0.08; I -0.05; L -0.102; P -0.078; V 0.013; D 0.075; T -0.011; Q 0.034
D19: C -0.094; E 0.022; S -0.015; I -0.051; R -0.031; T -0.02; H -0.034; G -0.125; N -0.056; V 0.014; P -0.336; W -0.131; Q -0.207; Y 0.044; K 0.101; F -0.171; M 0.044; L 0.032
